In patent publication US20240010704A1, “CHIMERIC SENSOR PROTEIN AND METHODS OF USE THEREOF” (Universitaet Leipzig, priority 2020, published 2024):
Residue numbers refer to the chain shown, from its start.

Experiments:
γ-secretase = biological target: T1, γ-secretase (Drosophila melanogaster, UniProt O02194); assay: Luciferase reporter assay in S2 cells, pharmacological inhibition of γ-secretase activity by DAPT; format: cell-based; details: for reporter activity without DAPT vs. with 10 μM DAPT: FIG. 8C
T1 construct: endogenous in cells; host or cells: Drosophila S2 cells
Method: (§1) For transfection, mini- or midi-prepped plasmid DNA (Qiagen) for each construct was adjusted to a stock concentration 100 ng/μl using a nanophotometer (Implen). For individual transfections a total amount of 200 ng DNA per 96-well plate well was used and always contained 30 ng of lexAop>FLuc2 (test construct reporter) and Act5.1Cp>RLuc (transfection control reporter), respectively. Test constructs (X-NRS-LexA) and TEV protease plasmids were added at 1:1 ratio (equimolarly adjusted to lexAop>FLuc2) to the DNA mixes; each DNA mix was supplemented with empty pBSK-SK+ vector (Stratagene) to 200 ng. S2 cells were cultured in Schneider's Drosophila medium (Invitrogen, Cat. no. 21720-024). Cultures were maintained in an air incubator at 25° C. S2 cells were split and plated into individual wells of a 96-well plate at a concentration of 5×10^5/well on day 0. 24 hours after plating (day 1), cells were transfected with Lipofectamine 2000 (Invitrogen, #11668019) with the suitable 1:1 plasmid/reagent mixture according to manufacturer's instructions and incubated for 48 hours. When induction of the metallothionein-promoter was required, CuSO4 stock medium was added in each well of the experiment to a final concentration of 0.5 mM CuSO4 24 hrs after transfection (day 2).
(§2) Cells were lysed on day 3 (48 hrs after transfection) and luciferase measurements with the Dual-Glo luciferase assay system (Promega) were performed according to the manufacturer's protocol. In brief, the supernatant was removed from each well by aspiration and cells were incubated with 200 μl passive lysis buffer on a shaker at room temperature for 30 min. Lysates were analyzed in 96-well plates with a Victor2 plate reader luminometer (PerkinElmer). Firefly and Renilla luciferase luminescence signals were collected for 10 s. Relative luciferase activities were calculated for each sample individually as principally described in Potter et al. (ref. 23) according to the following formula:
(F/R)Empty=(Σi=1^nFEmpty^i/REmpty^i)/n,
(§3) where n=number of control samples; F=Firefly luciferase luminescence signal; R=Renilla luciferase luminescence signal; Empty=lexAop>FLuc2+Ac5.1p>RLuc+BSK-SK+. Each condition was executed at least in triplicate, the average and SEM were determined for each condition, and statistical significance was evaluated using Student's t test. Plasmids used for transfection in S2 cells were: N^ECN-LexA, N^EGF-LexA, ChiN-Test, pChiN1, pChiN2, pChiN3, lexAop-FLuc2, Ac5.1-RLuc, secTEVp, intraTEVp, pBSK-SK+.

[1] = tested on: lexAop-FLuc reporter in Drosophila Schneider 2 (S2) cells; assay: Luciferase (lexAop-FLuc) reporter assay of NRS sensor constructs in S2 cells; format: cell-based; details: FIG. 9; for reporter activity in luciferase assays: S2 cells
Description: In order to conceptually establish the approach to fuse heterologous ECRs to the Notch^ITS to suppress its proteolytic activation, a sensor protein containing 4 immunoglobulin (Ig) domains of the human CD4 receptor fused to the Notch^ITS was engineered^28 (FIG. 7A).
As a positive control a constitutively active N^ECN-LexA receptor^34 with a constantly exposed S2 cleavage site was included (FIG. 7A,B).
Next, the extracellular CD4 repeats of the sensor protein were replaced with the ECR of an aGPCR, the Latrophilin/ADGRL-homolog CIRL/CG8639 (calcium independent receptor of α-latrotoxin) to enable the NRS to detect the physical dissociation of the NTF-CTF complex within the GAIN domain when appended to the Notch^ITS. Thus, the entire ECR of CIRL (including the GAIN domain, GPS, tethered agonist segment and predicted linker to the 7TM domain) was N-terminally fused to the NRS core (CIRL-NRS-LexA; FIG. 9). […] In order to distinguish between these two possibilities, we mutated the GPS of the sensor at the −2 position of its catalytic triad and replaced the conserved Histidin by an Alanine (FIG. 9) to block GAIN domain self-cleavage and eventual NTF release. […] This set of experiments establishes that the CIRL-NRS-LexA NRS can be used for monitoring the integrity of the NTF-CTF heterodimer clamped by the GAIN domain of CIRL.
as §1
as §2, with “In brief, the supernatant was removed from each well by aspiration and cells were incubated with 200 μl passive lysis buffer on a shaker at room temperature for 30 min.” left out, “formula: […]” for “formula:”
as §3, with “Plasmids used for transfection in S2 cells were: N^ECN-LexA, N^EGF-LexA, ChiN-Test, pChiN1, pChiN2, pChiN3, lexAop-FLuc2, Ac5.1-RLuc, secTEVp, intraTEVp, pBSK-SK+.” left out

Drosophila melanogaster = assay: In vivo expression analysis of genomically integrated cirl-NRS sensors (transcriptionally activated mCherry reporter); details: adult animals; for sensor activity (lexAop-mCherry reporter expression): FIG. 11
Description: To test the utility of the NRS sensor principle in vivo, an existing genomic engineering platform^13,35 was used to encode NRS sensors in alleles of the adhesion GPCR cirl/CG8639 of Drosophila melanogaster. This places CIRL-NRS expression under the endogenous regulatory control of the cirl locus (FIG. 10A). The NRS design was adapted to generate minigenes for cirl-NRS-LexA, cirl^H>A-NRS-LexA and cirl-NRS^S3-LexA by fusing the genomic fragment encoding the CIRL-ECR to the NRS-LexA cDNA (FIG. 10A,B). The resulting transgenes were inserted in the cirl gene using phiC31-assisted transformation generating fly stocks expressing the different sensors variants from the cirl locus.
Next, the functionality of CIRL-NRS was further studied in anatomical expression analyses.
To control for potential misexpression inherent to the LexA transcriptional reporter, additional cirl-NRS transgenes alternatively terminating in Ga/4 or QF2 transcription factor cassettes were generated an analysed.

T1 sequence (O02194 whole entry): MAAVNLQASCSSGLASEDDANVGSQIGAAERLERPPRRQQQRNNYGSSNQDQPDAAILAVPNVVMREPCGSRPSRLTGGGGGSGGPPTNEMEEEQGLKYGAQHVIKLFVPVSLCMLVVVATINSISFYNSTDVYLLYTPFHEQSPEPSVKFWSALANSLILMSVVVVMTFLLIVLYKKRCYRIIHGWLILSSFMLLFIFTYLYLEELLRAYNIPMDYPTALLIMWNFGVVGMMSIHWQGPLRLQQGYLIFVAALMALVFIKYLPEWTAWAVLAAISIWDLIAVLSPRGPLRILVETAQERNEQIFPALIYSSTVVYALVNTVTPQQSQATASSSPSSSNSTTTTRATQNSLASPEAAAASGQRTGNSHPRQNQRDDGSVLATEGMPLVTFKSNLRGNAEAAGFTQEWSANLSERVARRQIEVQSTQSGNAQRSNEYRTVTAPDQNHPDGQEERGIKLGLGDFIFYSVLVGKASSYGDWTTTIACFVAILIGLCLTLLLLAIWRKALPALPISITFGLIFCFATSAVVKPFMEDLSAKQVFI
T1 sequence (Q9VC27 23-695 partner): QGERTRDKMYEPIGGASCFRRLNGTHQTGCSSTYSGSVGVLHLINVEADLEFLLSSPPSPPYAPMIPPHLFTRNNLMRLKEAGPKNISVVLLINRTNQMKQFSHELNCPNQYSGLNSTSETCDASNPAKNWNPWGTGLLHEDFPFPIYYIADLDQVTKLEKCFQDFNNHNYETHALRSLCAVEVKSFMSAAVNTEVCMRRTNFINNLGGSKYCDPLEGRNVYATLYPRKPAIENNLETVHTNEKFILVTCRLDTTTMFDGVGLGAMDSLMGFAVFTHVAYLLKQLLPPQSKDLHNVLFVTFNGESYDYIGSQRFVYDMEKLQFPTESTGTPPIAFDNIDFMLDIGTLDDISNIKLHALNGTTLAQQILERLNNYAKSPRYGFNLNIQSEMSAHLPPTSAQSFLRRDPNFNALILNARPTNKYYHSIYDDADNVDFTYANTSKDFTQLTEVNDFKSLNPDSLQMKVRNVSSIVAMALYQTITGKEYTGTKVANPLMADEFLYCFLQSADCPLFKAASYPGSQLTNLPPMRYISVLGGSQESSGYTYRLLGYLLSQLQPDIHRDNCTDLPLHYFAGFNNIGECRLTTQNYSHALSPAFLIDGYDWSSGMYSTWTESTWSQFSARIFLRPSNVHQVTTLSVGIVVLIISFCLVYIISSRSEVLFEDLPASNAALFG
T1 sequence (Q9VQG2 whole entry partner): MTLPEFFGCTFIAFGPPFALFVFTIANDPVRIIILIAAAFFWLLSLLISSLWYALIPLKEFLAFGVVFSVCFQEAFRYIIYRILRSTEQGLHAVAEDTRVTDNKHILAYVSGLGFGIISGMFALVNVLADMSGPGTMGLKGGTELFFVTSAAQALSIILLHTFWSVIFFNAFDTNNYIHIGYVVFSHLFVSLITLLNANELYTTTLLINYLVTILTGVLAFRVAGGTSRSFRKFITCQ
T1 sequence (Q86BE9 whole entry partner): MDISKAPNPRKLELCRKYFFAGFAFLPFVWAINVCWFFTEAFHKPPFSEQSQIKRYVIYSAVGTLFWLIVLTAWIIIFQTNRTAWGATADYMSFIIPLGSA

C[C@H](NC(=O)Cc1cc(F)cc(F)c1)C(=O)N[C@H](C(=O)OC(C)(C)C)c1ccccc1 [DAPT]
effect on reporter activity (γ-secretase; 10 μM DAPT, S2 cells): abolished reporter activity
reporter activity without DAPT vs. with 10 μM DAPT (γ-secretase; CD4-6TEVs-NRS-LexA construct): 3.6 ×
reporter activity without DAPT vs. with 10 μM DAPT (γ-secretase; CD4-6TEVs-NRS-LexA+intraTEVp): 7.0 ×
reporter activity without DAPT vs. with 10 μM DAPT (γ-secretase; CD4-6TEVs-NRS-LexA+secTEVp): 23.4 ×
reporter activity without DAPT vs. with 10 μM DAPT (γ-secretase; Control): 1.1 ×
reporter activity without DAPT vs. with 10 μM DAPT (γ-secretase; N^ECN-LexA construct): 43.7 ×
reporter activity without DAPT vs. with 10 μM DAPT (γ-secretase; N^EGF-LexA construct): 5.8 ×

B1: CIRL-NRS-LexA: entire ECR of CIRL N-terminally fused to the NRS core; full-length NTF release sensor for dmCIRL (protein)
chain: MKLCILLAVVAFVGLSLGETGFPKSLSVLNSRCAHKQSCGVLAATSMFGDPCPGTHKYLEAHYQCISAAQTSTTTNRPSPPPWVLSNGPPIFGNGSGLIHPPGVGAGAPPPPRLPTLPGVVGISGNPGLFNVPPQHTAVTHSTPSSSTTAVGGGRLKGGATSTTTTKHPAGRHDGLPPPPQLHHHHNHHGEDTASPTKPSSKLPAGGNATSPSNTRILTGVGGSGTDDGTLLTTKSSPNRPPGTAASGSVVPGNGSVVRTINNINLNAAGMSGGDDESKLFCGPTHARNLYWNMTRVGDVNVQPCPGGAAGIAKWRCVLMKRIPDSGYDEYDDDISSTTPAPSGGDCLHNSSSCEPPVSMAHKVNQRLRNFEPTWHPATPDLTQCRSLWLNNLEMRVNQRDSSLISIANDMSEVTSSKTLYGGDMLVTTKIIQTVSEKMMHDKETFPDQRQREAMIMELLHCVVKTGSNLLDESQLSSWLDLNPEDQMRVATSLLTGLEYNAFLLADTIIRERSVVQKVKNILLSVRVLETKTIQSSVVFPDSDQWPLSSDRIELPRAALIDNSEGGLVRIVFAAFDRLESILKPSYDHFDLKSSRSYAILSNDSDVNAGEIQQRLRILNSKVISASLGKGRHIQLSQPITLTLKHLKTENVTNPTCVFWNYIDHAWSANGCSLESTNRTHSVCSCNHLTNFAILMDVVDEHQHSLFTMFDGNMRPRIDTAAKHQLRNDFQIHSVRGIKNPGDEDNGEPPANVKYVITGIILVIIALAFFGMVLSTQRKRSGPPKLKALTARQQEVFDLIRDHISQTGMPPTRAEIAQRLGFRSPNAAEEHLKALARKGVIEIVSGASRGIRLLQEEEEGLPLVGRVAAGEPLLAQQHIEGHYQVDPSLFKPNADFLLRVSGMSMKDIGIMDGDLLAVHKTQDVRNGQVVVARIDDEVTVKRLKKQGNKVELLPENSEFKPIVVDLRQQSFTIEGLAVGVIRNGDWLEFPGIRRPAGIPGDLAPPTDVSLGDELHLDGEDVAMAHADALDDFDLDMLGDGDSPGPGFTPHDSAPYGALDMADFEFEQMFTDALGIDEYGGASRYLDPAFLYKVVSSATMDYKDHDGDYKDHDIDYKDDDDKHRST
modifications: Full-length NTF release sensor for dmCIRL used in Example 2
reporter activity in luciferase assays [1]: high activity
luciferase reporter activity, fold difference ([1]; vs. Cirl-NRS^S3-LexA): 23.7 ×
luciferase reporter activity, fold difference ([1]; vs. Cirl^H>A-NRS-LexA): 148.8 ×
sensor activity (lexAop-mCherry reporter expression) (Drosophila melanogaster): strong expression in the eye, proboscis and leg neurons
expression pattern with matching reporter transgenes (Drosophila melanogaster; FIG. 12): strong activation

B2: CIRL^H>A-NRS-LexA: NTF release sensor for dmCIRL, GPS cleavage site mutated (His to Ala at −2) (protein)
chain: B1 chain with H688A
modifications: Full-length NTF release sensor for dmCIRL (GPS cleavage site mutated)
reporter activity in luciferase assays [1]: no reporter activity
sensor activity (lexAop-mCherry reporter expression) (Drosophila melanogaster): abrogated NRS activation

B3: CIRL-NRS^S3-LexA: NTF release sensor for dmCIRL, S3 cleavage site mutated (disabled γ-secretase recognition) (protein)
chain: B1 chain with V773K
modifications: Full-length NTF release sensor for dmCIRL (S3 cleavage site mutated)
reporter activity in luciferase assays [1]: no reporter activity
sensor activity (lexAop-mCherry reporter expression) (Drosophila melanogaster): completely abrogated
